From patent US20240409645A1 (DUALYX, published 2024)
Numbering of substitutions follows the chain as printed.

B1: FJ1427_P035MP04D11 (VHH)
VHH: EVQLVESGGGLVQAGGSLRLSCAASGRTFGAVAVGWFRQVPGKEREFVAAINRSGSATKYADSVKGRFTISRDNAESPVFLQMNSLKPEDTAVYYCAADSLPYGRPYYFQTSAGEYDYWGQGTQVTVSS
notes: VHH in periplasmic extract; also called clone nr
B2: FJ1427_P035MP04A09 (VHH)
VHH: B1 VHH with E1Q, S54N, V64A, F80Y, V93I
notes: as for B1
B3: 32-MP04A08 (VHH)
VHH: QVQLVESGGGLVQAGGSLRLSCAASGRTFGSTAVGWFRQVPGKEREFVSAINRSGSATTYADSVKGRFTISRDNAKNTVYLQMNSLTPEDTGVYYCAADSLPYGRPYYFQRSAGEYDYWGQGTQVTVSS
notes: VHH in periplasmic extract; also called FJ1427_P035MP04A08; clone nr
B4: FJ1427_P035MP04F10 (VHH)
VHH: QLQLVESGGGWVQVGESLRLSCVPSGRTFVSGIMGWFRQAPGKEREFVARIISNNNSTRYTDSVKGRFTISRDSAKNTMYLQMNTLRPEDTAVYYCAARDRYGSGNSLSPSAYDYWGQGTQVTVSS
notes: as for B1
B5: FJ1427_P035MP04G03 (VHH)
VHH: B4 VHH with Q1E, L2V, V23A, S53L, N84D, T85S
notes: as for B1
B6: FJ1427_P035MP04G11 (VHH)
VHH: B4 VHH with L2V, V23A, K43E, S53L
notes: as for B1
B7: FJ1427_P035MP04H10 (VHH)
VHH: B4 VHH with L2V, W11L, V14A, E16G, V23A, S53L, T61I, N84D, T85S
notes: as for B1
B8: FJ1427_P035MP04H11 (VHH)
VHH: B4 VHH with L2V, L18P, V23A, A40T, S53L
notes: as for B1
B9: FJ1427_P035MP04H09 (VHH)
VHH: B4 VHH with Q1E, L2V, V23A, S53L
notes: VHH in periplasmic extract; also called clone nr; 360
B10: FJ1427_P035MP04G08 (VHH)
VHH: B4 VHH with L2V, V23A, S53L, N84D, T85S
notes: as for B1
B11: FJ1427_P035MP04F11 (VHH)
VHH: B4 VHH with L2V, V23A, A40T, S53L, M79L
notes: as for B1
B12: FJ1427_P035MP04G10 (VHH)
VHH: B4 VHH with L2V, V23A, S53L, N55S, V64A, N84D, T85S
notes: VHH in periplasmic extract; also called clone nr; 367
B13: FJ1427_P035MP04F02 (VHH)
VHH: QLQLVESGGGLVQAGGSLTLSCAASGRTFSRDVVGWFRQAPGKEREFVASISRSGDGTFYTDSVKGRFTISSRDNAKNTVLLQMNSLKVEDTAVYYCAAGDGWSTYDYWGQGTQVTVSS
notes: as for B1
B14: 33-MP04C09 (VHH)
VHH: QLQLVESGGGLVQAGGSLRLSCAASGPTFSRVAVGWFRQAPGKEREFVAAVNRPATMTKYADSVKGRFTVSRDNAKNTVDLQMNSMKPEDTAVYYCAADSVPYGRPYYWQTSAGDYDYWGQGTQVTVSS
notes: VHH in periplasmic extract; also called FJ1427_P035MP04C09; clone nr
B15: FJ1427_P035MP04A04 (VHH)
VHH: QVQLVESGGGLVQAGESLRLSCAASGPTASRVAVAWFRQVPGKEREFVAVVNRPGTMTKYADSVKGRFTISRDSAKNTVYLQMNSLKPEDTAVYYCAADSVPYGRPYYFQTSAGNYDYWGQGTQVTVSS
notes: as for B1
B16: FJ1427_P035MP04A11 (VHH)
VHH: B15 VHH
notes: as for B1
B17: FJ1427_P035MP04D08 (VHH)
VHH: B15 VHH
notes: as for B1
B18: FJ1427_P035MP04G09 (VHH)
VHH: B14 VHH with L2V, V5Q, A40V, V70I, W109F, D115E
notes: as for B1
B19: FJ1427_P035MP04C11 (VHH)
VHH: B15 VHH with A14H, E16G, A29F, A35G, T56S, T69N, S74T, Q110T, N115D
notes: as for B1
B20: FJ1427_P035MP04B03 (VHH)
VHH: B15 VHH with V5Q
notes: as for B1
B21: FJ1427_P035MP04H08 (VHH)
VHH: B15 VHH with Q1E
notes: as for B1
B22: 1-MP01H01 (VHH)
VHH: EVQLVESGGGLVQAGGSLRLSCAASGRTFRTHNMGWFRRAPGKEREFVAAISWNVDNTLYADSVKGRFTISRDNGRNMVYLQMNSLKPEDTAVYYCAADNIPLSSDVAATATEYDYWGQGTQVTVSS
notes: periplasmic extract; also called FJ1427_P035MP01H01
B23: FJ1427_P035MP01G01 (VHH)
VHH: B22 VHH with E1Q, V5Q, G75D, Y95F, A108R, Y114F, D115G, Q122R
notes: periplasmic extract; also called clone nr
B24: FJ1427_P035MP01H11 (VHH)
VHH: B22 VHH with E1Q, G75D, Y95F, A108R, Y114F, D115G, Q122R
notes: periplasmic extract; also called clone nr; 88
B25: FJ1427_P035MP01D08 (VHH)
VHH: B22 VHH with R27G, H32R, I51V, T58K, D62G, V107M, A108R, A109P
notes: periplasmic extract; also called clone nr; 60
B26: FJ1427_P035MP01H08 (VHH)
VHH: B22 VHH with G10R, A14S, T28A, R30S, T58K, D62N, T69A, V107M, A108R, Y116V
notes: periplasmic extract; also called clone nr; 64
B27: FJ1427_P035MP01E05 (VHH)
VHH: B22 VHH with E1Q, K43E, A50V, T58K, A108R, Y114F, D115G
notes: periplasmic extract; also called clone nr; 37
B28: FJ1427_P035MP01H10 (VHH)
VHH: QVQLVESGGGLVETGGSLRLSCAASGITFNDHTMAWFRQAPGKEREFVAARDWSDIITRYASSVKGRFTISRDNAGNTGFLQMNSLRPEDTAVYYCAAREGGVVAGVRSGAPYDYWGQGTQVTVSS
notes: periplasmic extract; also called clone nr; 80
B29: FJ1427_P035MP01D09 (VHH)
VHH: QVQLVESGGGLVQPGGSLRLSCAASGFTFSNNFMSWVRQAPGKGLEWVSTISYGGESTTYAESVKGRFTISRDNAKNTLYLQMNNLKPEDTAVYYCAKATSYDSIRSGSRGQGTQVTVSS
notes: periplasmic extract; also called clone nr; 68
B30: 2-MP01A02 (VHH)
VHH: B29 VHH with A24T, S30R
notes: periplasmic extract; also called FJ1427_P035MP01A02

Biological target: T1, human IL-2Rγ (common cytokine receptor γ-chain) (human, UniProt P31785 23-262, limits assumed)
T1 construct: Recombinant protein coated on the plate or immobilised on a CM5 chip; also called hu IL-2R; CD132
T1 sequence: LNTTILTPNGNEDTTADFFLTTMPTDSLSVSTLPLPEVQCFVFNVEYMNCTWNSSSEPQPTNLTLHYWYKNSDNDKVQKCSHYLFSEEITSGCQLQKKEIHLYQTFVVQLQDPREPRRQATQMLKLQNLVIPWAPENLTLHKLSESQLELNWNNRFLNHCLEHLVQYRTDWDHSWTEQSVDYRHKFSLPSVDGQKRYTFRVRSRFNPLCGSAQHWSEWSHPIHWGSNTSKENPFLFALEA
Experiment: PE binding ELISA, periplasmic extract on coated protein
Procedure: (§1) In a binding ELISA, human or mouse IL-2Rα, IL-2Rβ and IL-2Rγ proteins were coated directly on maxisorp microtiter plates overnight at 4° C. Free binding sites were blocked using 4% Marvel in PBS for 1 hour. Next, 1:5 dilution of P.E. in 1% Marvel/PBS were added to wells and incubated for 1 hour. […] Binding specificity was determined based on O.D. at 450 nm values compared to negative controls.

Binder | OD (PE binding ELISA) [OD450 nm]
B1 | 1.41
B2 | 1.23
B3 | 0.407
B4 | 0.751
B5 | 0.933
B6 | 1.4
B7 | 1.8
B8 | 1.77
B9 | 1.87
B10 | 1.84
B11 | 2.01
B12 | 0.839
B13 | 0.196
B14 | 1.69
B15 | 1.31
B16 | 0.593
B17 | 0.579
B18 | 0.559
B19 | 0.912
B20 | 1.37
B21 | 1.3

Biological target: T1, human IL-2Rγ (common cytokine receptor …)
Experiment: SPR off-rate ranking, periplasmic extract on immobilised protein
Procedure: (§2) SPR was performed to determine dissociation rates using Biacore 3000 instrument (GE Healthcare). Briefly, human and mouse IL-2R proteins were immobilized on carboxylmethyl dextran sensor chip (CM5) at approximately 2500 RUs using amine coupling in acetate buffer (GE Healthcare). The VHH-containing P.E. were loaded with a flow rate of 30 uL/min and the off-rates were measured over a 120s period.

Binder | koff [s⁻¹]
B1 | 0.0401
B2 | 0.0576
B3 | 0.0616
B4 | 0.0147
B5 | 0.00744
B6 | 0.0116
B7 | 0.00998
B8 | 0.0103
B9 | 0.0222
B10 | 0.00892
B11 | 0.0111
B12 | 0.0104
B13 | 0.0026
B14 | 0.031
B15 | 0.0378
B16 | 0.0165
B17 | 0.0195
B18 | 0.0658
B19 | 0.0693
B20 | 0.0421
B21 | 0.048

Biological target: T2, human IL-2Rα (human, UniProt P01589 22-240, limits assumed)
T2 construct: recombinant protein; also called hu IL-2R; human IL-2Ra
T2 sequence: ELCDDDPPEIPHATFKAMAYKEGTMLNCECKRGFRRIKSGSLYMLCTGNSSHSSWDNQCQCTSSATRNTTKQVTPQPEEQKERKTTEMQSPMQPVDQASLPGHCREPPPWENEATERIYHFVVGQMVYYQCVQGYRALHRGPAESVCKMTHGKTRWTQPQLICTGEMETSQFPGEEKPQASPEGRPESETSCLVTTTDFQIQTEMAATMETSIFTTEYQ
Experiment: ELISA, P.E. on coated antigen
Procedure: as §1

Binder | OD (PE binding ELISA) [OD450 nm]
B22 | 1.71
B23 | 2.52
B24 | 2.62
B25 | 2.62
B26 | 2.6
B27 | 2.59
B28 | 2.47
B29 | 2.57
B30 | 2.62

Biological target: T2, human IL-2Rα
Experiment: SPR, P.E. on immobilised antigen
Procedure: as §2

Binder | koff [s⁻¹]
B22 | 0.0229
B23 | 0.000414
B24 | 0.000725
B25 | 0.000842
B27 | 0.000498
B29 | 0.00212
B30 | 0.00153
